Laboratory results taken from PMC6698902.

Assays:
Experiment in all cases: fluorescence anisotropy
[1] = biological target: T1, A3B-CTD E255A (inactive, 'WT') (Homo sapiens, UniProt Q9UH17 187-382, E255A)
A3B-CTD P206G = A3B-CTD P206G (Homo sapiens, UniProt Q9UH17 187-382, E255A;P206G)
A3B-CTD R211A = A3B-CTD R211A (Homo sapiens, UniProt Q9UH17 187-382, E255A;R211A)
[2] = biological target: T1, A3B-CTD E255A (inactive, 'WT'); remark: listed apart in the source
A3B-CTD Y315F = A3B-CTD Y315F (Homo sapiens, UniProt Q9UH17 187-382, E255A;Y315F)
Chain of A3B-CTD Y315F (Q9UH17 187-382 E255A/Y315F): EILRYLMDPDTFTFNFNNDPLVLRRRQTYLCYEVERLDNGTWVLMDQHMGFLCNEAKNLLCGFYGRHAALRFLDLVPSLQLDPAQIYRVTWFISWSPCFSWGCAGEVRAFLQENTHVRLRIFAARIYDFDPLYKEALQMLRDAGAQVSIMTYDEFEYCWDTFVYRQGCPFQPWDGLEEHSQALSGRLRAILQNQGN

T1 sequence (Q9UH17 187-382 E255A): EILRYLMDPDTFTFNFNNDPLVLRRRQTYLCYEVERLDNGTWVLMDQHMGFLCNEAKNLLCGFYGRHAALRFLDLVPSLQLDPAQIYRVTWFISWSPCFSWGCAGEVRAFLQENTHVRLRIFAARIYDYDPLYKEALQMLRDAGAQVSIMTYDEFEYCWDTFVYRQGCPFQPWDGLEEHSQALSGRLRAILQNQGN
Chain of A3B-CTD R211A (Q9UH17 187-382 R211A/E255A): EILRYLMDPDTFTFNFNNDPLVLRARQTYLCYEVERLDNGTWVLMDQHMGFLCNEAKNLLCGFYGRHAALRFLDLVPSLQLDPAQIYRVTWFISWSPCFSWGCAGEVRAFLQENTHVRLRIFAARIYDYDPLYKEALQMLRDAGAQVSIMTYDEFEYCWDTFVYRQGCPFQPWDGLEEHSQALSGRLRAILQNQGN
Chain of A3B-CTD P206G (Q9UH17 187-382 P206G/E255A): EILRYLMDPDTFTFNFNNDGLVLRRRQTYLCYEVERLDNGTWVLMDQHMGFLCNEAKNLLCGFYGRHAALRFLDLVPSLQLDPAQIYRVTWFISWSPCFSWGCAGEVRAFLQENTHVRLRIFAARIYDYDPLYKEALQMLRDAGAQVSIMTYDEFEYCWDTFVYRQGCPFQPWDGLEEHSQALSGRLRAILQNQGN

In the case of AAAAAAAATCGAAAA (ssDNA) [polyA TCG (linear DNA)], the Kd [1] is reported as 5.4 µM, the binding result (A3B-CTD P206G) is reported as “no binding” and the binding result (A3B-CTD R211A) is reported as “no binding”.

GCCAUCUAUCGAUGG (structured_RNA) [RNA hairpin]: no binding [2].

GCCATCATTCGATGGG (structured_DNA) [DNA hairpin] was tested, and the binding result (A3B-CTD Y315F) was “binds”, the Kd [1] was 2 µM and the binding result (A3B-CTD P206G) was “no binding”. GCCATCATTCGATGGG (structured_DNA) [DNA hairpin]: no binding (A3B-CTD R211A).
